From patent publication US20190282663A1 (KEROS THERAPEUTICS, published 2019)

B11: ActRIIb (SEQ ID NO: 74) (receptor)
chain: GRGEAETRECIYYNANWELERTNQSGLERCEGEQDKRLHCYASWRNSSGTIELVKKGCWLDDFNCYDRQECVATEENPQVYFCCCEGNFCNERFTHLPEAGGPEVTYEPPPTAPT
notes: also called Human ActRIIb, extracellular portion; not shown: Carrier and linker
B12: growth differentiation factor 11 (GDF11) (ligand, UniProt O95390 299-407, looked up)
chain: NLGLDCDEHSSESRCCRYPLTVDFEAFGWDWIIAPKRYKANYCSGQCEYMFMQKYPHTHLVQQANPRGSAGPCCTPTKMSPINMLYFNDKQQIIYGKIPGMVVDRCGCS
B13: BMP-9 (ligand, UniProt Q9UK05 320-429, looked up)
chain: SAGAGSHCQKTSLRVNFEDIGWDSWIIAPKEYEAYECKGGCFFPLADDVTPTKHAIVQTLVHLKFPTKVGKACCVPTKLSPISVLYKDDMGVPTLKYHYEGMSVAECGCR
notes: also called bone morphogenetic protein 9

Columns and labels:
[1] = target: B12; test: SPR (Biacore 3000), receptor captured on chip, ligand in solution
[2] = target: T1, Activin B (UniProt P09529 293-407); test: as above
T1 sequence (looked up): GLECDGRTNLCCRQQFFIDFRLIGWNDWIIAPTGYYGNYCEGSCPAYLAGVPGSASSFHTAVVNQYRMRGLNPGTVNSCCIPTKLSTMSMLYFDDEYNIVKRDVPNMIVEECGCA

[3] = target: T2, Activin A (UniProt P08476 311-426); test: as above
T2 sequence (looked up): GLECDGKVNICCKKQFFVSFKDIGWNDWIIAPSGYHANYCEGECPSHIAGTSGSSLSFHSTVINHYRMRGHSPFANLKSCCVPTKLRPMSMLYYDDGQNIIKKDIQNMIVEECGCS

[4] = target: B13; test: as above
[5] = target: B11; test: as above
[6] = target: B12; test: SPR (Biacore 3000), receptor captured on chip by anti-mouse antibody, ligand in solution
[7] = target: T1, Activin B; test: as above
[8] = target: T2, Activin A; test: as above

B1: ActRIIa/bΔ9 variant (SEQ ID NO: 58) (receptor)
chain: GAILGRSETQECLFYNANWELDRTNQTGVERCEGEKDKRLHCYATWRNISGSIEIVKKGCWLDDFNCYDRTDCVETKENPQVYFCCCEGNMCNEKFSYFPEMEVTQPTS
notes: Engineered extracellular ActRIIa variant; not shown: Fusion partner and its linker
Question: With B1 as the binder, how does the Kd [1] read?
Answer: 0.115 nM

Question: What about the Kd [2] of the same binder?
Answer: 0.0123 nM

Question: And the Kd [3]?
Answer: 0.213 nM

Question: What about the Kd [4] of the same binder?
Answer: 10 nM

B2: ActRIIa/b variant (SEQ ID NO: 69) (receptor)
chain: GAILGRSETQECLFYNANWELERTNQTGVERCEGEKDKRLHCYATWRNISGSIEIVKKGCWLDDFNCYDRTDCVETEENPQVYFCCCEGNMCNEKFSYFPEMEVTQPTS
notes: Engineered extracellular ActRIIa variant; not shown: Carrier and linker
Question: For B2, which Kd [1] is on record?
Answer: 0.186 nM

Question: And the Kd [2]?
Answer: 0.103 nM

Question: What about the Kd [3] of the same binder?
Answer: 0.542 nM

Question: And the Kd [4]?
Answer: 4 nM

B3: ActRIIa/b+ variant (SEQ ID NO: 150) (receptor)
chain: GAILGRSETQECLFYNANWELERTNQTGVERCEGEKDKRLHCYATWRNISGSIEIVAKGCWLDDFNCYDRTDCVETEENPQVYFCCCEGNMCNEKFSYFPEMEVTQPTS
notes: not shown: Fusion partner and its linker
Question: B3 was tested. Which Kd [2] did it give?
Answer: 0.282 nM

Question: And the Kd [3]?
Answer: 0.242 nM

Question: What about the Kd [4] of the same binder?
Answer: 26 nM

B4: ActRIIa/bmax1 variant (SEQ ID NO: 70) (receptor)
chain: GAILGRSETQECLYYNANWELERTNQTGVERCEGEQDKRLHCYATWRNISGSIEIVKKGCWLDDFNCYDRTDCVETEENPQVYFCCCEGNMCNEKFSYFPEMEVTQPTS
notes: as for B2
Question: How did the Kd [1] turn out when B4 was run?
Answer: 0.236 nM

Question: And the Kd [2]?
Answer: 0.097 nM

Question: What about the Kd [3] of the same binder?
Answer: 0.232 nM

Question: And the Kd [4]?
Answer: 5.6 nM

B5: ActRIIa/bΔ9 min variant (SEQ ID NO: 6) (receptor)
chain: GAILGRSETQECLFYNANWELDRTNQTGVEPCEGEKDKRLHCFATWKNISGSIEIVKKGCWLDDINCYDRTDCVETKENPQVYFCCCEGNMCNEKFSYFPEMEVTQPTS
notes: as for B1
Question: What does the source list for B5?
Answer: Kd [1]: 0.114 nM; Kd [2]: 0.088 nM; Kd [3]: 0.31 nM; Kd [4]: 17 nM

B6: ActRIIa/bΔ9m2 variant (SEQ ID NO: 38) (receptor)
chain: GAILGRSETQECLFYNANWELDRTNQTGVERCEGEKDKRLHCYATWRNISGSIEIVKKGCWLDDINCYDRTDCVETKENPQVYFCCCEGNMCNEKFSYFPEMEVTQPTS
notes: as for B1
Question: Which Kd [1] does the source give for B6 here?
Answer: 0.222 nM

Question: And the Kd [2]?
Answer: 0.104 nM

Question: What about the Kd [3] of the same binder?
Answer: 0.17 nM

Question: And the Kd [4]?
Answer: 13 to 18 nM

B7: ActRIIa/bΔ9m3 variant (SEQ ID NO: 41) (receptor)
chain: GAILGRSETQECLFYNANWELDRTNQTGVERCEGEKDKRLHCFATWRNISGSIEIVKKGCWLDDFNCYDRTDCVETKENPQVYFCCCEGNMCNEKFSYFPEMEVTQPTS
notes: as for B1
Question: With B7 as the binder, how does the Kd [1] read?
Answer: 0.117 nM

Question: What about the Kd [2] of the same binder?
Answer: 0.0725 nM

Question: What about the Kd [3] of the same binder?
Answer: 0.071 nM

Question: What about the Kd [4] of the same binder?
Answer: 1.2 nM

B8: ActRIIa/bΔ9m4 variant (SEQ ID NO: 44) (receptor)
chain: GAILGRSETQECLFYNANWELDRTNQTGVEPCEGEKDKRLHCYATWRNISGSIEIVKKGCWLDDFNCYDRTDCVETKENPQVYFCCCEGNMCNEKFSYFPEMEVTQPTS
notes: as for B2
Question: What does the source list for B8?
Answer: Kd [1]: 0.394 nM; Kd [2]: 0.254 nM; Kd [3]: 0.375 nM; Kd [4]: 14 to 20 nM

B9: ActRIIa/bmax2 variant (SEQ ID NO: 71) (receptor)
chain: GAILGRSETQECLFYNANWELERTNQTGVERCEGEKDKRLHCYATWRNISGSIEIVKKGCWLDDFNCYDRTDCVETEENPQVYFCCCEGNMCNEKFSYFPEMEVTQPTSNP
notes: not shown: Carrier and linker
Question: B9 was tested. Which Kd [1] did it give?
Answer: 0.113 nM

Question: What about the Kd [2] of the same binder?
Answer: 0.039 nM

Question: What about the Kd [3] of the same binder?
Answer: 0.135 nM

Question: And the Kd [4]?
Answer: 5 nM

B10: ActRIIa/bmax3 variant (SEQ ID NO: 72) (receptor)
chain: GAILGRSETQECLFYNANWELERTNQTGVERCEGEKDKRLHCYATWRNISGSIEIVKKGCWLDDFNCYDRTDCVETEENPQVYFCCCEGNMCNEKFSYFPEMEVTQPTSNPVTPK
notes: not shown: Carrier and linker
Question: Which results are given for B10?
Answer: Kd [1]: 0.214 nM; Kd [2]: 0.043 nM; Kd [3]: 0.089 nM; Kd [4]: 3.3 nM

Question: For B11, which Kd [2] is on record?
Answer: 0.023 nM

Question: And the Kd [3]?
Answer: 0.063 nM

Question: For B12, which Kd [5] is on record?
Answer: 0.115 nM

Question: Which Kd [5] does the source give for B13 here?
Answer: 0.278 nM

B14: ActRIIb/a variant (SEQ ID NO: 149) (receptor)
chain: GRGEAETRECIFYNANWEKDRTNQSGLEPCYGDQDKRRHCFASWKNSSGTIELVKQGCWLDDINCYDRQECVAKKDSPEVYFCCCEGNFCNERFTHLPEAGGPEVTYEPPPTAPT
notes: Engineered extracellular ActRIIb variant; also called extracellular ActRIIb variant; not shown: Carrier and linker
Question: Which results are given for B14?
Answer: binding result [6]: no binding; binding result [7]: no binding; binding result [8]: no binding
